Measured values published in patent US20250361274A1, “PEPTIDE AND PEPTIDE-CONTAINING AGENT” (PEPTIDREAM INC., priority 2022, published 2025).
Numbered stars: 1 amine (or outer) side, 2 acyl side, 3 side chain; on linkers, the order of the positions; unused ones are H or OH. Bridge positions count the residues as written; N and C are the ends. Square brackets hold non-standard residues; d marks the D form. Ends that are not written are not given here. Hgn = (S)-2,6-diamino-6-oxohexanoic acid, NC(=O)CCC[C@H](N[*:1])C(=O)[*:2]; Ala(2-NH2-4-pyridyl) = Nc1cc(C[C@H](N)C(=O)O)ccn1; Bip = N[C@@H](Cc1ccc(-c2ccccc2)cc1)C(=O)O; Ala(cPent) = N[C@@H](CC1CCCC1)C(=O)O; NMeF = CN[C@@H](Cc1ccccc1)C(=O)O; Aad = N[C@@H](CCCC(=O)O)C(=O)O; Cha = N[C@@H](CC1CCCCC1)C(=O)O; Ahp(2) = CCCCC[C@H](N)C(=O)O; Chg = N[C@H](C(=O)O)C1CCCCC1; Abu = CC[C@H](N)C(=O)O

Legend:
BMP4 = biological target: T1, BMP4 (Homo sapiens, UniProt P12644); experiment: BMP4 signal transduction inhibitory activity: SMAD1 phosphorylation by BMP4 stimulus, AlphaLISA SureFire, A549 cells; assay type: cell-based; settings: SMAD1 phosphorylation, BMP4 0.2 nM; peptide conc. in assay 0.2, 2, 20 nM
T1 sequence (P12644 293-408): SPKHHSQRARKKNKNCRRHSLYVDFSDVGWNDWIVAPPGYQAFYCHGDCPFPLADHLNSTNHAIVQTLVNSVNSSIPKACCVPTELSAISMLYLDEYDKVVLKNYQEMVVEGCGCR

BMP7 = biological target: T2, BMP7 (Homo sapiens, UniProt P18075); experiment: BMP7 signal transduction inhibitory activity: SMAD1 phosphorylation by BMP7 stimulus, A549 cells; assay type: cell-based; settings: SMAD1 phosphorylation, BMP7 10 nM; peptide conc. in assay 1, 10, 100 nM
T2 sequence (P18075 293-431): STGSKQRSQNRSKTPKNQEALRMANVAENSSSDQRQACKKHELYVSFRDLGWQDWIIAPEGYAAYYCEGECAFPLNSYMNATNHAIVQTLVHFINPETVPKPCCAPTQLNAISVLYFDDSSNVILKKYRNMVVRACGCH
How it was run: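 Inhibition is read as reduced BMP7-driven SMAD1 phosphorylation in human A549 cells, with the BMP7 stimulus at 10 nM. Three-point peptide concentrations spanned 1–1,000 nM depending on the peptide series. Some peptides received eight-point, 1/3-ratio titrations from 100 nM or 1,000 nM, alongside a Noggin control.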

Substance	aLISA BMP4 (0.2 nM) % inh (BMP4)	aLISA BMP7 (10 nM) % inh (BMP7)
335 (FG[NMeF]G[Bip]GDD[Ala(cPent)]A[NMeF]LHCG-NH2; not fully specified (N-terminus, bridges)) [compound 335]	ND (the inhibitory activity was less than 30% at the maximum concentration evaluated)	D (showed less than 30% of inhibitory activity in 10 nM-addition zone and showed 30% or more of inhibitory activity in 100 nM-addition zone)
336 (FG[NMeF]G[Bip]GDD[Cha]E[NMeF]LHCG-NH2; not fully specified (N-terminus, bridges)) [compound 336]	ND (the inhibitory activity was less than 30% at the maximum concentration evaluated)	D (showed less than 30% of inhibitory activity in 10 nM-addition zone and showed 30% or more of inhibitory activity in 100 nM-addition zone)
337 (FG[NMeF]G[Bip]GDD[Cha][Aad][NMeF]LHCG-NH2; not fully specified (N-terminus, bridges)) [compound 337]	ND (the inhibitory activity was less than 30% at the maximum concentration evaluated)	D (showed less than 30% of inhibitory activity in 10 nM-addition zone and showed 30% or more of inhibitory activity in 100 nM-addition zone)
338 ({CH2CO}-FG[NMeF]G[Bip]GDD[Cha][Ahp(2)][NMeF]LHCG-NH2; thioether N-14) [compound 338]	ND (the inhibitory activity was less than 30% at the maximum concentration evaluated)	D (showed less than 30% of inhibitory activity in 10 nM-addition zone and showed 30% or more of inhibitory activity in 100 nM-addition zone)
339 (FG[NMeF]G[Bip]GDD[Cha][Abu][NMeF]LHCG-NH2; not fully specified (N-terminus, bridges)) [compound 339]	ND (the inhibitory activity was less than 30% at the maximum concentration evaluated)	D (showed less than 30% of inhibitory activity in 10 nM-addition zone and showed 30% or more of inhibitory activity in 100 nM-addition zone)
340 (FG[NMeF]G[Bip]GDD[Cha]Q[NMeF]LHCG-NH2; not fully specified (N-terminus, bridges)) [compound 340]	ND (the inhibitory activity was less than 30% at the maximum concentration evaluated)	D (showed less than 30% of inhibitory activity in 10 nM-addition zone and showed 30% or more of inhibitory activity in 100 nM-addition zone)
341 (FG[NMeF]G[Bip]GDD[Cha]S[NMeF]LHCG-NH2; not fully specified (N-terminus, bridges)) [compound 341]	ND (the inhibitory activity was less than 30% at the maximum concentration evaluated)	D (showed less than 30% of inhibitory activity in 10 nM-addition zone and showed 30% or more of inhibitory activity in 100 nM-addition zone)
342 (FG[NMeF]G[Bip]GDD[Cha]T[NMeF]LHCG-NH2; not fully specified (N-terminus, bridges)) [compound 342]	ND (the inhibitory activity was less than 30% at the maximum concentration evaluated)	D (showed less than 30% of inhibitory activity in 10 nM-addition zone and showed 30% or more of inhibitory activity in 100 nM-addition zone)
343 (FG[NMeF]G[Bip]GDD[Cha][Hgn][NMeF]LHCG-NH2; not fully specified (N-terminus, bridges)) [compound 343]	ND (the inhibitory activity was less than 30% at the maximum concentration evaluated)	D (showed less than 30% of inhibitory activity in 10 nM-addition zone and showed 30% or more of inhibitory activity in 100 nM-addition zone)
344 (FG[NMeF]G[Bip]GDD[Cha]A[NMeF][Cha]HCG-NH2; not fully specified (N-terminus, bridges)) [compound 344]	A (showed less than 30% of inhibitory activity in 2 nM-peptide-addition zone and showed 30% or more of inhibitory activity in 20 nM-addition zone)	D (showed less than 30% of inhibitory activity in 10 nM-addition zone and showed 30% or more of inhibitory activity in 100 nM-addition zone)
345 (FG[NMeF]G[Bip]GDD[Cha]A[NMeF][Ahp(2)]HCG-NH2; not fully specified (N-terminus, bridges)) [compound 345]	A (showed less than 30% of inhibitory activity in 2 nM-peptide-addition zone and showed 30% or more of inhibitory activity in 20 nM-addition zone)	D (showed less than 30% of inhibitory activity in 10 nM-addition zone and showed 30% or more of inhibitory activity in 100 nM-addition zone)
346 (FG[NMeF]G[Bip]GDD[Cha]A[NMeF]IHCG-NH2; not fully specified (N-terminus, bridges)) [compound 346]	ND (the inhibitory activity was less than 30% at the maximum concentration evaluated)	D (showed less than 30% of inhibitory activity in 10 nM-addition zone and showed 30% or more of inhibitory activity in 100 nM-addition zone)
347 (FG[NMeF]G[Bip]GDD[Cha]A[NMeF][Chg]HCG-NH2; not fully specified (N-terminus, bridges)) [compound 347]	ND (the inhibitory activity was less than 30% at the maximum concentration evaluated)	D (showed less than 30% of inhibitory activity in 10 nM-addition zone and showed 30% or more of inhibitory activity in 100 nM-addition zone)
348 (FG[NMeF]G[Bip]GDD[Cha]A[NMeF]LACG-NH2; not fully specified (N-terminus, bridges)) [compound 348]	A (showed less than 30% of inhibitory activity in 2 nM-peptide-addition zone and showed 30% or more of inhibitory activity in 20 nM-addition zone)	D (showed less than 30% of inhibitory activity in 10 nM-addition zone and showed 30% or more of inhibitory activity in 100 nM-addition zone)
349 (FG[NMeF]G[Bip]GDD[Cha]A[NMeF]LLCG-NH2; not fully specified (N-terminus, bridges)) [compound 349]	ND (the inhibitory activity was less than 30% at the maximum concentration evaluated)	D (showed less than 30% of inhibitory activity in 10 nM-addition zone and showed 30% or more of inhibitory activity in 100 nM-addition zone)
350 (FG[NMeF]G[Bip]GDD[Cha]A[NMeF]L[Abu]CG-NH2; not fully specified (N-terminus, bridges)) [compound 350]	ND (the inhibitory activity was less than 30% at the maximum concentration evaluated)	D (showed less than 30% of inhibitory activity in 10 nM-addition zone and showed 30% or more of inhibitory activity in 100 nM-addition zone)
351 (FG[NMeF]G[Bip]GDD[Cha]A[NMeF]L[Ala(2-NH2-4-pyridyl)]CG-NH2; not fully specified (N-terminus, bridges); also: cyclic peptide, ring closure not given here) [compound 351]	ND (the inhibitory activity was less than 30% at the maximum concentration evaluated)	D (showed less than 30% of inhibitory activity in 10 nM-addition zone and showed 30% or more of inhibitory activity in 100 nM-addition zone)
